# Source: IntAct's records for PubMed 35512704
# B1: Mothers against decapentaplegic homolog 4 (Homo sapiens), Q13485 (parent)
# chain: MDNMSITNTPTSNDACLSIVHSLMCHRQGGESETFAKRAIESLVKKLKEKKDELDSLITAITTNGAHPSKCVTIQRTLDGRLQVAGRKGFPHVIYARLWRWPDLHKNELKHVKYCQYAFDLKCDSVCVNPYHYERVVSPGIDLSGLTLQSNAPSSMMVKDEYVHDFEGQPSLSTEGHSIQTIQHPPSNRASTETYSTPALLAPSESNATSTANFPNIPVASTSQPASILGGSHSEGLLQIASGPQPGQQQNGFTGQPATYHHNSTTTWTGSRTAPYTPNLPHHQNGHLQHHPPMPPHPGHYWPVHNELAFQPPISNHPAPEYWCSIAYFEMDVQVGETFKVPSSCPIVTVDGYVDPSGGDRFCLGQLSNVHRTEAIERARLHIGKGVQLECKGEGDVWVRCLSDHAVFVQSYYLDREAGRAPGDAVHKIYPSAYIKVFDLRQCHRQMQQQAATAQAAAAAQAAAVAGNIPGPGSVGGIAPAISLSAAAGIGVDDLRRLCILRMSFVKGWGPDYPRQSIKETPCWIEIHLHRALQLLDEVLHTMPIADPQPLD
# Variants of: B1
# Details: with pk3c3_human PIK3C3, Q8NEB9
row,Variant,effect of a mutation on the interaction
1,G386D,with no effect

# Variants of: B1
# Details: with pk3ca_human PIK3CA
row,Variant,effect of a mutation on the interaction
1,G386D,with no effect

# Variants of: B1
# Details: with pk3cb_human PIK3CB
row,Variant,effect of a mutation on the interaction
1,G386D,with no effect

# Variants of: B1
# Details: with pk3cg_human PIK3CG
row,Variant,effect of a mutation on the interaction
1,G386D,with no effect

# Variants of: B1
# Details: with p85a_human PIK3R1, P27986
row,Variant,effect of a mutation on the interaction
1,G386D,with no effect

# Variants of: B1
# Details: with p85b_human PIK3R2, O00459
row,Variant,effect of a mutation on the interaction
1,G386D,with no effect

# Variants of: B1
# Details: with dpod1_human POLD1, P28340
# Sequence of dpod1_human POLD1, P28340 (P28340 whole entry): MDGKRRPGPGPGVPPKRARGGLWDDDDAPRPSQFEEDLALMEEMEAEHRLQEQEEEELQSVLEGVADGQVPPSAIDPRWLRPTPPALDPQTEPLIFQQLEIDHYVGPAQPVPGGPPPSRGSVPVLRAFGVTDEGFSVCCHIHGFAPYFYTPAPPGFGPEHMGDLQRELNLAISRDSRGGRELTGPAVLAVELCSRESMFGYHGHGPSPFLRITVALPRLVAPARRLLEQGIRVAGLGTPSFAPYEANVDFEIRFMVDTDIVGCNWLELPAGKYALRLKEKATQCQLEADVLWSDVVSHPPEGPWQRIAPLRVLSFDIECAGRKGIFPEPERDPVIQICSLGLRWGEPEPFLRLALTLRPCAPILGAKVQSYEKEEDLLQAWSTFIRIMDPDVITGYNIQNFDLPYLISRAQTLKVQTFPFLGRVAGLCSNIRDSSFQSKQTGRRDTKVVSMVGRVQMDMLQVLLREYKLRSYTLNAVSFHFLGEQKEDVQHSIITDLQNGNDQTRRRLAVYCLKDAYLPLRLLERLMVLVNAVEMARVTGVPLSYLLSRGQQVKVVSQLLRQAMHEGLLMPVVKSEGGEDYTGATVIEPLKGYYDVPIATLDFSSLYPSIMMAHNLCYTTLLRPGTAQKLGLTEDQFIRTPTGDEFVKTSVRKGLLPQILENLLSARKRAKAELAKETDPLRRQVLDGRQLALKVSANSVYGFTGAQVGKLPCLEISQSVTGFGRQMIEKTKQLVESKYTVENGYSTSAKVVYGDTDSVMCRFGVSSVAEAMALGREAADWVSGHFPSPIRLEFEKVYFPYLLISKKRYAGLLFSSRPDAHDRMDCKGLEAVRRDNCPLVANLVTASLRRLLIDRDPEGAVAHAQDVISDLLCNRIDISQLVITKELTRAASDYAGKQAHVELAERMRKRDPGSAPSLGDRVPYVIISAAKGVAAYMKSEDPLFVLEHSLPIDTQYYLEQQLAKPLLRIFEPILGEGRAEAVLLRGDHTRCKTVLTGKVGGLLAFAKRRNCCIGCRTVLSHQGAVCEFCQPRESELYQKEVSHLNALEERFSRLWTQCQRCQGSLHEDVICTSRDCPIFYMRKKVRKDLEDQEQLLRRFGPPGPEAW
row,Variant,effect of a mutation on the interaction
1,G386D,with no effect

# Variants of: B1
# Details: with dpoe1_human POLE
row,Variant,effect of a mutation on the interaction
1,G386D,with no effect

# Variants of: B1
# Details: with 2aaa_human PPP2R1A
row,Variant,effect of a mutation on the interaction
1,G386D,with no effect

# Variants of: B1
# Details: with prdm1_human PRDM1, O75626
row,Variant,effect of a mutation on the interaction
1,G386D,with no effect

# Variants of: B1
# Details: with aapk2_human PRKAA2, P54646
row,Variant,effect of a mutation on the interaction
1,G386D,with no effect

# Variants of: B1
# Details: with aakb2_human PRKAB2, O43741
row,Variant,effect of a mutation on the interaction
1,G386D,with no effect

# Variants of: B1
# Details: with prss8_human PRSS8, Q16651
row,Variant,effect of a mutation on the interaction
1,G386D,with no effect

# Variants of: B1
# Details: with ptk6_human PTK6, Q13882
row,Variant,effect of a mutation on the interaction
1,G386D,with no effect

# Variants of: B1
# Details: with tf65_human RELA
row,Variant,effect of a mutation on the interaction
1,G386D,with no effect

# Variants of: B1
# Details: with rheb_human RHEB
row,Variant,effect of a mutation on the interaction
1,G386D,with no effect

# Variants of: B1
# Details: with rictr_human RICTOR
row,Variant,effect of a mutation on the interaction
1,G386D,with no effect

# Variants of: B1
# Details: with rnf43_human RNF43, Q68DV7
row,Variant,effect of a mutation on the interaction
1,G386D,with no effect

# Variants of: B1
# Details: with ros1_human ROS1, P08922
# Sequence of ros1_human ROS1, P08922 (P08922 whole entry): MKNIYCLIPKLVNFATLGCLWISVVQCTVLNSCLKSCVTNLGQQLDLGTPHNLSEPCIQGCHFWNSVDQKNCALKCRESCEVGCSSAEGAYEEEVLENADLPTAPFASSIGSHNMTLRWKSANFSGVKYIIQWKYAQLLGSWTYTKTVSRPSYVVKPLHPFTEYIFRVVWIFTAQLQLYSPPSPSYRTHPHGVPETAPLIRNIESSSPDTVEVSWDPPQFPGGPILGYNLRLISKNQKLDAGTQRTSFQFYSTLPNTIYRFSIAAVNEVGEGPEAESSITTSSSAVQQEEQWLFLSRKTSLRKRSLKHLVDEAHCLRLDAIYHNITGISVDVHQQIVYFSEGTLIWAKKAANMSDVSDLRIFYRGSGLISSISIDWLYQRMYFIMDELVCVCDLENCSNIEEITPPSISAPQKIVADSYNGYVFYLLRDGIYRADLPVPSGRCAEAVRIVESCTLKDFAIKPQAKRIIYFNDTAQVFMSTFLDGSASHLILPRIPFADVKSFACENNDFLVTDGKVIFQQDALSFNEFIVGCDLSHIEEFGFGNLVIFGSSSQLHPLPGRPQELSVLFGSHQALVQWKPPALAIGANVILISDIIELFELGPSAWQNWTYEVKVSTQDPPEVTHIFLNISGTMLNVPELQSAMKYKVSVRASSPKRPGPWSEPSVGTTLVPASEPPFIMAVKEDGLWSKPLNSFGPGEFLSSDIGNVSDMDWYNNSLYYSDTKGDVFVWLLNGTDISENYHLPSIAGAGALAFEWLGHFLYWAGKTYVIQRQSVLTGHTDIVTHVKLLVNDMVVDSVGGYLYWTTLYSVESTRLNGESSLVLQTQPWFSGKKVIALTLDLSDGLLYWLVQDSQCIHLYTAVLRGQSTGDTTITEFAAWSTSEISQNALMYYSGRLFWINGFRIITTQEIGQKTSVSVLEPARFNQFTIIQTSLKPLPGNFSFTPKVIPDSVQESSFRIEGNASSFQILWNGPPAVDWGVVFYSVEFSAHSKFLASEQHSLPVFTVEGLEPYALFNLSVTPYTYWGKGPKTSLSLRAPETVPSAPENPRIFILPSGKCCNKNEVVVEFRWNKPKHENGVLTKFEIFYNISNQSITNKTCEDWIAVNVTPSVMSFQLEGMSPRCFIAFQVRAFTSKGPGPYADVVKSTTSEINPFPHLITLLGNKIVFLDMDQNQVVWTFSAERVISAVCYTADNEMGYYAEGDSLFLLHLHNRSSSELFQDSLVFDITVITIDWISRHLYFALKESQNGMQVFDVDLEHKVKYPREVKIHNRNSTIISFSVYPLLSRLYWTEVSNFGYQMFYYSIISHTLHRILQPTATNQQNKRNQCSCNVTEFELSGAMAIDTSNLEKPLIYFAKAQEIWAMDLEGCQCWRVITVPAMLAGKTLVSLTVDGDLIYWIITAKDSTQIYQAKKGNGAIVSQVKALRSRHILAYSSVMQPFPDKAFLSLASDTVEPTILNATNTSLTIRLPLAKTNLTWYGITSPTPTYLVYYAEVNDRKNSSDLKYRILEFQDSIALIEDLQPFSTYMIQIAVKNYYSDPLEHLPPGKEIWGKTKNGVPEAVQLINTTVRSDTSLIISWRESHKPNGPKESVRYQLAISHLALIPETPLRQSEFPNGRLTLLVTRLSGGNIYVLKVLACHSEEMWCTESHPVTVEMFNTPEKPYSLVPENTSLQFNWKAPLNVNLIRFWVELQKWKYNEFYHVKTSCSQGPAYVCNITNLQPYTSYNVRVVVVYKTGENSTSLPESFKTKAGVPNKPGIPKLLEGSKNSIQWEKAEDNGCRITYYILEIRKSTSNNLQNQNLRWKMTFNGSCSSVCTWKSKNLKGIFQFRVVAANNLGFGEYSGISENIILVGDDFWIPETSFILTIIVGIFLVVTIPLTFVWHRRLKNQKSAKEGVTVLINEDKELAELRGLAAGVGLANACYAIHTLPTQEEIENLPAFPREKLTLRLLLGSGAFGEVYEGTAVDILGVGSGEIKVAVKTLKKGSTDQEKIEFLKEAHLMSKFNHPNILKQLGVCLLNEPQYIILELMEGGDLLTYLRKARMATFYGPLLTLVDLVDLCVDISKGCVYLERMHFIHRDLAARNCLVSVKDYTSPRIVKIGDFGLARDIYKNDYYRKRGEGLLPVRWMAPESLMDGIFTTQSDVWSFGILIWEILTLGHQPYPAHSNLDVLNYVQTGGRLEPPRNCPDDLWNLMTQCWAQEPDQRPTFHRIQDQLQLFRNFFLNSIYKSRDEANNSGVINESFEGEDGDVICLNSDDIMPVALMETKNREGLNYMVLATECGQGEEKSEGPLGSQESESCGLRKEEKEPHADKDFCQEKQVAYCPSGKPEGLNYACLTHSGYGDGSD
row,Variant,effect of a mutation on the interaction
1,G386D,with no effect

# Variants of: B1
# Details: with rl5_human RPL5, P46777
row,Variant,effect of a mutation on the interaction
1,G386D,with no effect

# Variants of: B1
# Details: with ks6b1_human RPS6KB1, P23443
row,Variant,effect of a mutation on the interaction
1,G386D,with no effect

# Variants of: B1
# Details: with rptor_human RPTOR
row,Variant,effect of a mutation on the interaction
1,G386D,with no effect

# Variants of: B1
# Details: with runx1_human RUNX1, Q01196
# Sequence of runx1_human RUNX1, Q01196 (Q01196 whole entry): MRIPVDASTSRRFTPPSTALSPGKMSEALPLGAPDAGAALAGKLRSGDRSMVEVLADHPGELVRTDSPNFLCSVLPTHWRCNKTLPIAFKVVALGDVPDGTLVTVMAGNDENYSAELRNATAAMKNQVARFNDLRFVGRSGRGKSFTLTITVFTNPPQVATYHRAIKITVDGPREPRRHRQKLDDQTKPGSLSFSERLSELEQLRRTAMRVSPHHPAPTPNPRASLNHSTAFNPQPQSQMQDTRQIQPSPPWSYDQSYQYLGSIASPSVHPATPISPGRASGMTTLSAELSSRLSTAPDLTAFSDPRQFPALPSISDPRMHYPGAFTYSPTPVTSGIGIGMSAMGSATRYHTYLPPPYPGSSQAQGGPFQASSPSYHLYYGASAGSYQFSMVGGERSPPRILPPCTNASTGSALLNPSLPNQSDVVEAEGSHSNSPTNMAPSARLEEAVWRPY
row,Variant,effect of a mutation on the interaction
1,G386D,with no effect

# Variants of: B1
# Details: with ruvb1_human RUVBL1, Q9Y265
row,Variant,effect of a mutation on the interaction
1,G386D,with no effect

# Variants of: B1
# Details: with sdha_human SDHA
row,Variant,effect of a mutation on the interaction
1,G386D,with no effect

# Variants of: B1
# Details: with setb1_human SETDB1, Q15047
row,Variant,effect of a mutation on the interaction
1,G386D,with no effect

# Variants of: B1
# Details: with skp2_human SKP2, Q13309
row,Variant,effect of a mutation on the interaction
1,G386D,with no effect

# Variants of: B1
# Details: with smad1_human SMAD1, Q15797
row,Variant,effect of a mutation on the interaction
1,G386D,with no effect

# Variants of: B1
# Details: with smad2_human SMAD2, Q15796
row,Variant,effect of a mutation on the interaction
1,G386D,with no effect

# Variants of: B1
# Details: with smad3_human SMAD3, P84022
row,Variant,effect of a mutation on the interaction
1,G386D,with no effect

# Variants of: B1
# Details: with smca4_human SMARCA4, P51532
row,Variant,effect of a mutation on the interaction
1,G386D,with no effect

# Variants of: B1
# Details: with snf5_human SMARCB1, Q12824
row,Variant,effect of a mutation on the interaction
1,G386D,with no effect

# Variants of: B1
# Details: with smo_human SMO
row,Variant,effect of a mutation on the interaction
1,G386D,with no effect

# Variants of: B1
# Details: with socs1_human SOCS1, O15524
# Sequence of socs1_human SOCS1, O15524 (O15524 whole entry): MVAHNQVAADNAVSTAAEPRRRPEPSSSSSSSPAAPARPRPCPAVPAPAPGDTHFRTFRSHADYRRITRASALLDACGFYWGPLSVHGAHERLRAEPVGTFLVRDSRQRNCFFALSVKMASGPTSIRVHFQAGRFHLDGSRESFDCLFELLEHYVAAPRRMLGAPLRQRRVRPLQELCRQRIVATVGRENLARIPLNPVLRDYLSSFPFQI
row,Variant,effect of a mutation on the interaction
1,G386D,with no effect

# Variants of: B1
# Details: with sox10_human SOX10, P56693
row,Variant,effect of a mutation on the interaction
1,G386D,with no effect

# Variants of: B1
# Details: with sox2_human SOX2, P48431
row,Variant,effect of a mutation on the interaction
1,G386D,with no effect

# Variants of: B1
# Details: with sox3_human SOX3, P41225
row,Variant,effect of a mutation on the interaction
1,G386D,with no effect

# Variants of: B1
# Details: with sox4_human SOX4, Q06945
row,Variant,effect of a mutation on the interaction
1,G386D,with no effect

# Variants of: B1
# Details: with sox9_human SOX9, P48436
row,Variant,effect of a mutation on the interaction
1,G386D,with no effect

# Variants of: B1
# Details: with spop_human SPOP
row,Variant,effect of a mutation on the interaction
1,G386D,with no effect

# Variants of: B1
# Details: with src_human SRC
row,Variant,effect of a mutation on the interaction
1,G386D,with no effect

# Variants of: B1
# Details: with stat3_human STAT3, P40763
row,Variant,effect of a mutation on the interaction
1,G386D,with no effect

# Variants of: B1
# Details: with stk38_human STK38, Q15208
row,Variant,effect of a mutation on the interaction
1,G386D,with no effect

# Variants of: B1
# Details: with ksyk_human SYK
row,Variant,effect of a mutation on the interaction
1,G386D,with no effect

# Variants of: B1
# Details: with eloc_human ELOC
row,Variant,effect of a mutation on the interaction
1,G386D,with no effect

# Variants of: B1
# Details: with tfe2_human TCF3, P15923
row,Variant,effect of a mutation on the interaction
1,G386D,with no effect

# Variants of: B1
# Details: with tead1_human TEAD1, P28347
row,Variant,effect of a mutation on the interaction
1,G386D,with no effect

# Variants of: B1
# Details: with tead2_human TEAD2, Q15562
# Sequence of tead2_human TEAD2, Q15562 (Q15562 whole entry): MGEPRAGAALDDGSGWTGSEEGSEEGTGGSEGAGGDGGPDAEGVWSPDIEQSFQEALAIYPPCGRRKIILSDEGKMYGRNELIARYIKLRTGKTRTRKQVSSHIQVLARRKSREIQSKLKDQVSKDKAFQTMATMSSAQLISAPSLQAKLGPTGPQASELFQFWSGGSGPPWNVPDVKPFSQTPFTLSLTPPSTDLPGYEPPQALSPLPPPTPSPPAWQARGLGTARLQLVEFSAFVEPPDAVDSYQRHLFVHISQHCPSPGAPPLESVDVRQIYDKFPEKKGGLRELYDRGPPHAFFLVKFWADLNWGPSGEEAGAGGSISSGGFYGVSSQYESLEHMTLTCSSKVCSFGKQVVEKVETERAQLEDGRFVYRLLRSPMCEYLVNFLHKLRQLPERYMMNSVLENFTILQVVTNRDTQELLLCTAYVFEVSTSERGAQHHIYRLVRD
row,Variant,effect of a mutation on the interaction
1,G386D,with no effect

# Variants of: B1
# Details: with tead3_human TEAD3, Q99594
row,Variant,effect of a mutation on the interaction
1,G386D,with no effect

# Variants of: B1
# Details: with tet2_human TET2, Q6N021
row,Variant,effect of a mutation on the interaction
1,G386D,with no effect

# Variants of: B1
# Details: with tgfr2_human TGFBR2, P37173
row,Variant,effect of a mutation on the interaction
1,G386D,with no effect

# Variants of: B1
# Details: with tnr14_human TNFRSF14, Q92956
row,Variant,effect of a mutation on the interaction
1,G386D,with no effect

# Variants of: B1
# Details: with tpx2_human TPX2, Q9ULW0
row,Variant,effect of a mutation on the interaction
1,G386D,with no effect

# Variants of: B1
# Details: with trrap_human TRRAP
row,Variant,effect of a mutation on the interaction
1,G386D,with no effect

# Variants of: B1
# Details: with tsc2_human TSC2, P49815
row,Variant,effect of a mutation on the interaction
1,G386D,with no effect

# Variants of: B1
# Details: with tshr_human TSHR
row,Variant,effect of a mutation on the interaction
1,G386D,with no effect

# Variants of: B1
# Details: with vhl_human VHL
row,Variant,effect of a mutation on the interaction
1,G386D,with no effect

# Variants of: B1
# Details: with wt1_human WT1, P19544
# Sequence of wt1_human WT1, P19544 (P19544 whole entry): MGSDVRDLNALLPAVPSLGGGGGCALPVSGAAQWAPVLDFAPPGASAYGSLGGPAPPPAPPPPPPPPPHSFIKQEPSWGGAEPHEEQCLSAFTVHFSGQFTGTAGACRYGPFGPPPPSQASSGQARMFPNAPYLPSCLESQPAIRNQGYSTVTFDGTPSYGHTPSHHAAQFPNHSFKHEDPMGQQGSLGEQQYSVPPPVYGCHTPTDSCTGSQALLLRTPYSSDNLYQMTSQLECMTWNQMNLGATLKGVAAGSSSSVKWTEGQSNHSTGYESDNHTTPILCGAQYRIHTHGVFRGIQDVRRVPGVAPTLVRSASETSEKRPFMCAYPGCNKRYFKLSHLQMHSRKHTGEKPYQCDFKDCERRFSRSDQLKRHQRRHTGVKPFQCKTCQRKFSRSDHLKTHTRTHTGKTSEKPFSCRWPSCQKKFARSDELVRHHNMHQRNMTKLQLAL
row,Variant,effect of a mutation on the interaction
1,G386D,with no effect

# Variants of: B1
# Details: with wwtr1_human WWTR1, Q9GZV5
row,Variant,effect of a mutation on the interaction
1,G386D,with no effect

# Variants of: B1
# Details: with xirp2_human XIRP2, A4UGR9
row,Variant,effect of a mutation on the interaction
1,G386D,with no effect

# Variants of: B1
# Details: with xpo1_human XPO1, O14980
row,Variant,effect of a mutation on the interaction
1,G386D,with no effect

# Variants of: B1
# Details: with 1433e_human YWHAE
row,Variant,effect of a mutation on the interaction
1,G386D,with no effect

# Variants of: B1
# Details: with 1433z_human YWHAZ
row,Variant,effect of a mutation on the interaction
1,G386D,with no effect

# Variants of: B1
# Details: with arc1a_human ARPC1A
row,Variant,effect of a mutation on the interaction
1,G386D,increasing interaction strength

# Variants of: B1
# Details: with axin2_human AXIN2, Q9Y2T1
row,Variant,effect of a mutation on the interaction
1,G386D,increasing interaction strength

# Variants of: B1
# Details: with btg1_human BTG1, P62324
row,Variant,effect of a mutation on the interaction
1,G386D,increasing interaction strength

# Variants of: B1
# Details: with erbb3_human ERBB3, P21860
row,Variant,effect of a mutation on the interaction
1,G386D,increasing interaction strength

# Variants of: B1
# Details: with gna13_human GNA13, Q14344
row,Variant,effect of a mutation on the interaction
1,G386D,increasing interaction strength

# Variants of: B1
# Details: with gsk3b_human GSK3B
row,Variant,effect of a mutation on the interaction
1,G386D,increasing interaction strength

# Variants of: B1
# Details: with hdac1_human HDAC1, Q13547
row,Variant,effect of a mutation on the interaction
1,G386D,increasing interaction strength

# Variants of: B1
# Details: with hnf1a_human HNF1A
row,Variant,effect of a mutation on the interaction
1,G386D,increasing interaction strength

# Variants of: B1
# Details: with notc2_human NOTCH2, Q04721
row,Variant,effect of a mutation on the interaction
1,G386D,causing an interaction

# Variants of: B1
# Details: with ntrk2_human NTRK2, Q16620
row,Variant,effect of a mutation on the interaction
1,G386D,causing an interaction

# Variants of: B1
# Details: with dpod1_human POLD1, P28340
# Remark: another data set of the same source
row,Variant,effect of a mutation on the interaction
1,G386D,increasing interaction strength

# Variants of: B1
# Details: with socs1_human SOCS1, O15524
# Remark: another data set of the same source
row,Variant,effect of a mutation on the interaction
1,G386D,increasing interaction strength
